Assay results: article PMC3619014 (Molecular pharmaceutics, 2012)

Molecular target: human KDR (VEGFR-2) expressed on porcine aortic endothelial cells (PAE/KDR) (human, UniProt P35968 20-1356)
Assay: radioligand binding

human KDR (VEGFR-2) expressed on porcine aortic endothelial cells (PAE/KDR), sequence (P35968 20-1356): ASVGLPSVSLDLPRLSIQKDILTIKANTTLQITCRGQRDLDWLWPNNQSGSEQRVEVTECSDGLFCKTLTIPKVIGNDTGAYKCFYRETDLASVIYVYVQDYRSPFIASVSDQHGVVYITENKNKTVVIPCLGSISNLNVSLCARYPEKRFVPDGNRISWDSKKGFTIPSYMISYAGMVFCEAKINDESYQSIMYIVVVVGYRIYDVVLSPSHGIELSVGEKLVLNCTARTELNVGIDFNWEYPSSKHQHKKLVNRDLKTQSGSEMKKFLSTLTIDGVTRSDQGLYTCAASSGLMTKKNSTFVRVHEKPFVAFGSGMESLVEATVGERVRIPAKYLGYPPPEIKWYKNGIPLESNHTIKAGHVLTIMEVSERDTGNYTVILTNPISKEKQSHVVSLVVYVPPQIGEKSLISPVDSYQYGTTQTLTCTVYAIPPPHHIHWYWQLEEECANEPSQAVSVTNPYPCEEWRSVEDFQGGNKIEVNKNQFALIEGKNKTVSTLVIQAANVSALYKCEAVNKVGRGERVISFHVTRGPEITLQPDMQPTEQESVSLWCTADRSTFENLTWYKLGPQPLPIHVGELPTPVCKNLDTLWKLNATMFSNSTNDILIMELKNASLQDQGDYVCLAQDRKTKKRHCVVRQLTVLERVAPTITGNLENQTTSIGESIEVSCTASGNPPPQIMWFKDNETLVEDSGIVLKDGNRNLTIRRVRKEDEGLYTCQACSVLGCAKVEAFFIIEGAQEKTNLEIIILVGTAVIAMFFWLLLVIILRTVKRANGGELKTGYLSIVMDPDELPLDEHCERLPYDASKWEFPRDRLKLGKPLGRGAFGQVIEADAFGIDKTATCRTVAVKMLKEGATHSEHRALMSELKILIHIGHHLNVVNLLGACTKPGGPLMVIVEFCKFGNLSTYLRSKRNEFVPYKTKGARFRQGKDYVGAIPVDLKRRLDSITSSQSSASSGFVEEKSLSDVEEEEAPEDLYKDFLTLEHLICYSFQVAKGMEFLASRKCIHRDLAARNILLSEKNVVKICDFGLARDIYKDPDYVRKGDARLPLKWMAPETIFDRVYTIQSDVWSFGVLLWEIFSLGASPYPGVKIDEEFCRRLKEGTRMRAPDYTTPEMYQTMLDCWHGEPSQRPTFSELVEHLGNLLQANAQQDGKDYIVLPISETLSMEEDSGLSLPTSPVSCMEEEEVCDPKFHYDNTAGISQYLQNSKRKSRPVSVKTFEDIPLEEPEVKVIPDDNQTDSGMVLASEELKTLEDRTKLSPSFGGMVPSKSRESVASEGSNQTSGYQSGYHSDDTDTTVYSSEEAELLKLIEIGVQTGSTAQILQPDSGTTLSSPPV

- IC50: 1.5 nM
B1: NOTA-K3-VEGF121 (ligand)
chain: KKKAPMAEGGGQNHHEVVKFMDVYQRSYCHPIETLVDIFQEYPDEIEYIFKPSCVPLMRCGGCCNDEGLECVPTEESNITMQIMRIKPHQGQHIGEMSFLQHNKCECRPKKDRARQEKCDKPRR
modifications: NOTA (from p-SCN-Bn-NOTA) on lysine residues, estimated 1~2 NOTA residues in each NOTA-K3-VEGF121; positions not determined
